Data from patent US20250313612A1 (Adimab, published 2025).

Tests used:
[1] = molecular target: RSV F protein of subtype A (strain A2) on recombinant mKate-RSV (Respiratory syncytial virus subtype A …, UniProt P03420 26-574); assay: cell-based or functional assay
[2] = molecular target: RSV F protein of subtype B (18537) on recombinant mKate-RSV (Respiratory syncytial virus subtype B …, UniProt P13843 26-574); assay: cell-based or functional assay
[3] = molecular target: T1, RSV F ectodomain stabilized in the postfusion conformation (F ΔFP), subtype A (Respiratory syncytial virus subtype A, UniProt P03420 26-109; P03420 147-524); assay: BLI, IgG on AHQ sensors, 100 nM antigen
T1 construct: extracellular domain; trimer; also called Postfusion subtype A; Postfusion RSV F

[4] = molecular target: T2, RSV F ectodomain stabilized in the postfusion conformation (F ΔFP), subtype B (Respiratory syncytial virus subtype B, UniProt P13843 26-109; P13843 147-524); assay: BLI, IgG on AHQ sensors, 100 nM antigen
T2 construct: extracellular domain; trimer; also called Postfusion subtype B

| Binder | Neut IC50 (µg/ml) subtype A [1] [µg/mL] | Neut IC50 (µg/ml) subtype B [2] [µg/mL] | Kd [3] [nM] | Kd [4] [nM] |
| --- | --- | --- | --- | --- |
| ADI-14558 (antibody, V domains shown) VH: QVQLVESGGGLIQPGASLRLSCGAYGFSFSSSAMSWVRQAPGKGLEWVSAISDNGGSTYYADSVQGRFTISRDNSKNTLYLQLNRLRAEDTAIYYCAKAYCSDSCHGGYFDYWGQGTLVTVSS VL: EIVLTQSPATLSLSPGDRATLSCRASQSVSSSFAWYQQKPGQAPRLLIYAVSNRATGIPARFSGSGSGTDFTLTISTLEPEDFAVYYCQQRSTWPLTFGPGTKVEIK | > 10 | > 10 |  |  |
| ADI-14529 (antibody, V domains shown, IgG; also called Antibody Number 89) VH: EVQLVESGGGLVKPGGSLRLSCAASGFIFRNAWMSWVRQAPGKGLEWVGRIKRTSEGGSVDYATPVQGRFSISRDDSRNTLYLQMNSLETDDTAVYYCSTGPPYSYFDSSGYSVVDYWGQGTLVTVSS VL: QSVVTQPPSVSGTPGQRVTISCTGSSSNIGTPFDVHWYQQIPETAPKLIISGGFSRPSGVPDRFSGSQSGTSASLAISGLRSEDEGDYYCAAWDDSLSGPVFGGGTKLTVL | 2.38 | 0.991 | 1.71 | 0.798 |
| ADI-14532 (antibody, V domains shown, IgG; also called Antibody Number 92) VH: EVQLVESGGGLVKPGGSLRLSCAASGFIFRNAWMSWVRQAPGKGLEWVGRIKRTSEGGSVDYATPVQGRFSISRDDSRKTLYLQMNSLETDDTAVYYCSTGPPYSYFDSSGYSVVDYWGLGTLVTVSS VL: SYELTQPPSASGTPGQRVTISCSASSSNIGDNYFYWYQQLPGKAPTLLMYGSDQRSSGVPDRFSGSQSGTSASLAISGLRSEDEADYYCAAWDDSLSGPVFGGGTQLTVL | 0.168 | 0.208 | 0.224 | 0.136 |
| ADI-14537 (antibody, V domains shown, IgG; also called Antibody Number 97) VH: EVQLVESGGGLVKPGGSLRLSCAASGFIFRNAWMSWVRQAPGKGLEWVGRIKRTSEGGSVDYATPVQGRFSISRDDSRKTLYLQMNSLETDDTAVYYCSTGPPYSYFDSSGYSVVDYWGLGTLVTVSS VL: QPVLTQPPSASGTPGQRVTISCSASSSNIGDNYFYWYQQLPGKAPTLLMYGSDQRSSGVPDRFSGSQSGTSASLAISGLRSEDEADYYCAAWDDSLSGPVFGGGTKLTVL | 0.272 | 0.292 | 0.211 | 0.142 |
| ADI-14531 (antibody, V domains shown, IgG; also called Antibody Number 91) VH: QVQLVQSGAEVKKPGSSVKVSCKASGVILTSVAVSWVRQAPGKGFEWMGGILPGFNKVRHAQDFENRATHTADASTNTVYMELSGLKSEDTAVYYCAIIDPQDCTRASCFWVNWLAPWGQGTLVTVSS VL: ETTLTQSPGTLTLSPGERATLSCRASQSVPSRNLAWYQQKPGQAPRLIIYAASNRATDIPDRFSGSGSGTDFTLTISRLEPQDFAVYYCQQYETSPITFGQGTKVDIK | > 10 | > 10 | 12.6 | 23.8 |
| ADI-14555 (antibody, V domains shown) VH: QVQLVQSGGGLVQPGGSLRLSCAASGLTFSSYAMSWVRQAPGKELEWVSSISESGVDTYYADSVKGRFTVSRDNSKSTLYLQMSSLGGDDTAVYYCAKAYCSNKACHGGYFDYWGQGTLVTVSS VL: ETTLTQSPDTLSLSPGERATLSCRASQSVRNYLAWYRQKPGQAPRLLIYDASNLATGIPARFSGSGSGTDFTLTISSLEPEDFAVYYCHQRSDWPLTFGPGTKVEIK | > 10 | > 10 |  |  |
| ADI-14562 (antibody, V domains shown) VH: EVQLVESGPEVKGPGSSVKVSCEASAATFSNYAISWVRQAPGQGLEWMGGFVPMLGTRNYAQKFKGRVTLTADVSTHTLYLEIGSLRFEDTAVYYCATVAGLGTSYGRYLESWGQGTLVTVSS VL: DIRMTQSPSSVSASLGDRVTITCRASQDISTALAWYQQIPGKAPKLLIYEASSLQSGVPSRFRGSGSETDFALTISSLQPEDFATYYCQQAKSFPYTFGQGTKVEIK | > 10 | 10.5 |  |  |
| ADI-14548 (antibody, V domains shown) VH: EVQLVESGGGLVQPGGSLRLSCAASGFSFSTSWMSWVRQAPGKGLEWLANIKEDGSKKIYVDSVKGRFSISRDNAKNSLYLQMTSLRAEDTAVYYCARDVWGWELVGWLDPWGQGTLVTVSS VL: SYELTQPPSVSVAPGKTASITCGGSNIGSRSVHWYQQKPGQAPVLVVYEDHDRPSGIPERFSGSNSGNTATLTISRVEAGDEADYYCQVWDSSRDHVVFGGGTKVTVL | 0.034 | 0.094 |  |  |
| ADI-14551 (antibody, V domains shown, IgG) VH: QVQLQESGPGLVKPSETLSLTCSVSGGSIKRGAYFWTWIRQRPGKGLEWIGSMHDSGDYYNPSLKTRVTILGDTTKNHFTLKLTSVTVADTALYYCARGRGYSYGWRFFDNWGQGTLVTVSS VL: NFMLTQPPSVSVSPGHSTRITCSGDALPKQYAYWYQQKPGQAPVLIMSKDSERPSGIPERFTGSSSGTTVTLTISGVQAEDEADYYCQSGDTSGSYVVFGGGTKVTVL |  |  | 0.207 | 0.195 |
| ADI-14550 (antibody, V domains shown) VH: QVQLVQSGGGVVQPGRSLRLSCAASGFTFSDYAMHWVRQAPGKGLQWVSLISYNGRKKYYADSVKGRFTISRDDSKNTLYLQMNPLRPDDTAVYYCARDGDIVAVPAAIGLDYWGQGTLVTVSS VL: DIVLTQSPESLAVSLGERATINCNSSQSVLYTSNNKNYLAWYQQKSGQPPKLLIYWASTRESGVPERFSGSGSGTDFTLTISSLQAEDVAVYYCQQYSSPPYTFGQGTKLEIK | 2.62 | > 10 |  |  |
| ADI-14527 (antibody, V domains shown, IgG; also called Antibody Number 87) VH: QVQLVQSGAELKRPGSSVKVSCKASGVYLTSVAVNWVRQVPGHGFEWMGGILTGFGKVRHAQAFENRATLTADASTNTAYLELSGLQAEDTAAYYCAIIDPQDCTAASCFWVNWLDPWGQGTLVTVSS VL: EIVLTQSPGTLTVSPGERATLSCRASQSVLSSHLAWYQQKPGQAPRLLIYAASSRATDVPDRFSGSGSGTDFTLTISRLEPQDFAVYYCQQYGSSPITFGQGTRLEIK | > 10 | > 10 | 0.889 | 0.645 |
| ADI-14534 (antibody, V domains shown, IgG; also called Antibody Number 94) VH: EVQLVESGGGVVQPGRSLRLSCAVSGFTFSNFGMHWVRQAPGKGLEWVAAISYDGRKRFQADSVKGRFTISRDNLKNTLNLQMNSLKTEDTAVYYCAKSSRLLDWLYNMDFWGQGTTVTVSS VL: SYVLTQPPSVSVAPGKTARITCGGNILGSSSVHWFQQKAGQAPVLVIYYDSDRPSGIPERFSGSHSGDTATLTISRVEVGDEADYYCQVWDNSNSQGVFGGGTQLTVL | > 10 | > 10 | 1 | 0.93 |
| ADI-14528 (antibody, V domains shown, IgG; also called Antibody Number 88) VH: QVQLVQSGAEVKKPGSSVKVSCKVAGGSFSNYAIAWLRQAPGQGLEWMGGIIPAFNRAMYARKFQDRVTITAYASTTTAYLDITGLRSEDTALYYCARPAGDFGDLKWVRSPFDYWGQGTLVTVSS VL: ETTLTQSPGTLSVSPGERATLSCRASQEVGINLAWYQQKPGQAPRLLIYGASTRATDVPARFSGSGSGTEFTLTISSLQSEDFAVYYCQEYNDWPPQLTFGPGTKVDIK | > 10 | 0.705 | 35.2 |  |
| ADI-14530 (antibody, V domains shown, IgG; also called Antibody Number 90) VH: QVQLVQSGAEVKKPGSSVKVSCKVVGGSFSNYGIGWVRQAPGQGPEWMGGIIPAFKTAKYAKKFQDRVTITADESSSTAYMEVRGLRPDDTALYYCARPEGDFGDLKWVRSPFDYWGQGTLVTVSS VL: ETTLTQSPATLSVSPGERVTLSCRASQDVSINLAWYQQKPGQAPRLLIYGASTRATDVPARFSGSGSGTDFTLTISSLQSEDFAFYYCQEYNDWPPQLTFGPGTKVEIK | > 10 | > 10 | 47.2 | 37.6 |
| ADI-14563 (antibody, V domains shown) VH: QVQLVQSGGGLAQPGGSLRLSCAASGFIFSVYEMDWVRQAPGKGLEWLSYIDITGNSVTYADSVRGRFTISRDNARNSLYLQMDSLRVEDTAVYYCVRDSRGPTTQWLTGYFDFWGQGTTVTVSS VL: DIRMTQSPATLSLSPGERATLSCRASQSVSNYLAWYQQKPGQAPRLLIYDVSNRATGIPARFSGSGSGTDFTLTISSLEPEDFAVYYCQQRRNWPPLTFGGGTKVEVK | > 10 | > 10 |  |  |
| ADI-14557 (antibody, V domains shown) VH: QVQLQQWGAGLLKPSETLSLTCQVYGVSFSDYYWNWIRQSPGKGLEWIGDVNHIGNTDYNPSLKSRVSISVDTSKNQFSLTLRSVTAADTALYYCARGRKLFEVPPKAPDYWGQGTLVTVSS VL: DIVMTQSPGTLSLSPGERATLSCRASQSVSSTYLAWYQQKPGQAPRLLIYGASIRATGIPDRFSGVGSGTDFTLTISRLEPEDVAVYYCQQYGSSPQTFGQGTKVEIK | > 10 | > 10 |  |  |
| ADI-14526 (antibody, V domains shown, IgG; also called Antibody Number 86) VH: EVQLVESGPGLVRPSQTLSIKCSVSGGSINRGAYFWTWIRQRPGKGLEWIGSIHDTGSYYNPSLKTRVSISGDTSKNLFTLELTSLTAADTAVYYCARGRGYSYGWRYFDSWGQGTLVTVSS VL: SYVLTQPPSVSVSPGQTARITCSGDAFPRQYSYWYQQKAGQPPVLVILKDSERPSGIPARFSGSTSGTTVTLTITGVQAEDEADYYCQSSDSSGNYVVFGGGTKLTVL | 2.36 | 9.67 | 0.346 | 0.342 |
| ADI-14556 (antibody, V domains shown) VH: EVQLVESGGGLVQPGGSLRLSCAASGFTFRSYWMTWVRQAPGKGLEWVASINDEGNTKYYVDSLKGRFTISRDNAKNSLYLQMNSLRAEDTAVYYCARESGLPRGAFQIWGPGTMVTVSS VL: EIVLTQSPVTLSLSPGERATLSCRASQSVGTFLAWYQHKPGQAPRLLIYDASNRASAIPARFSGSGSGTDFTLTISSLEPEDFAVYYCQHRSDWWTFGQGTKVEIK | > 10 | > 10 |  |  |
